Experimental findings from publication PMC8552724 are described below.

The subject of this data set is T1, AbrB (Bacillus thuringiensis (HD73?)), ORF:5acdf31f.
T1 sequence: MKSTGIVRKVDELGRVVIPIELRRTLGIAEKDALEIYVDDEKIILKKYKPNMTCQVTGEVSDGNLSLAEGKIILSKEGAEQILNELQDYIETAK
Description: EMSA.

Take “CATCCGTTAAAGGAAGCATGAATTAGTAATGAATTTGCAATTTCGATAAAAGTTTGTAATATTTCATTTTATGGACATACTTCATCTAGATCACTTTGTAATAGAATATTTCCTTTTATATACAATTAAACCACATTTATCCTTCGTGAAATGTTTATATATTAAATAATATAAAAAAATATAGGGTGTTATAATTAATTCGAAAACGTTTACAAAAAGAATGATGGAGGGATAATT (double strand) [Psip1Ab1-S (-201 to +36)]”: the binding result is “binds”.
